B1: VHH clone Ig-S506 (cluster Ig-7) (VHH)
VHH: QVQLVESGGGLVQAGGSLRLSCAASGFTFDDYVIGWFRQAPGKEREGVSCISSSDGSTNYADSVKGRFTISSDNAKNTVYLQMNSLKPEDTAVYYCAEGPTVLDGCIYDSGSYYFSWGQGTQVTVSS
B2: VHH clone Ig-S1139 (cluster Ig-7) (VHH)
VHH: B1 VHH with N59Y, Y108V
B3: VHH clone Ig-S8492 (cluster Ig-7) (VHH)
VHH: B1 VHH with S57R, N59D, E98A, D109Y
B4: VHH clone Ig-S675 (cluster Ig-7) (VHH)
VHH: B1 VHH with S25T, P41S, S52R, S57D, N59Y, I70V, Y108V, G111E
B5: VHH clone Ig-S6584 (cluster Ig-7) (VHH)
VHH: B1 VHH with V33I, I34V, S52R, I70V, G111E

Where a chain is given by its changes, count along the chain named.

For this test, the target named is Fab of trastuzumab (human). Nature of the test: SPR; Fab of trastuzumab amine-coupled to a CM5 chip (1,000 RU), VHH as analyte in a 1/2 dilution series; Biacore X100, HBS-EP (10 mM HEPES pH 7.4, 150 mM NaCl, 3 mM EDTA, 0.005% P20), 20°C, 10 µL/min, association 360 s, dissociation 800 s; 1:1 binding model. (In general: In SPR one partner is held on a chip, and binding of the other changes the refractive index at the surface.)
On to B1, for which the dissociation constant Kd (as a rule, the free concentration of one partner at which half of the binding sites on the other are occupied at equilibrium, for simple one-to-one binding) came out at 246 nM; the koff (as a rule, the rate constant with which the complex falls apart) is 0.0073 s⁻¹; the on-rate constant (kon) – broadly, the rate constant with which the complex forms – came out at 29700 M⁻¹ s⁻¹.

B2 had a Kd of 233 nM, an off-rate (koff) of 0.00554 s⁻¹ and a kon of 23700 M⁻¹ s⁻¹.

The molecule B3 displayed a Kd of 123 nM, a koff of 0.000245 s⁻¹ and an on-rate (kon) of 1990 M⁻¹ s⁻¹.

B4 had a Kd of 0.155 nM, a koff of 4.71e-05 s⁻¹ and an on-rate (kon) of 303000 M⁻¹ s⁻¹.

For B5, the Kd amounted to 5.99 nM, the koff was found to be 0.000221 s⁻¹ and the kon was 36900 M⁻¹ s⁻¹.

The values are drawn from article PMC10825579.
